In paper PMC2944812:

Molecular target: Human C1q (human) (UniProt P02745)
Assay: flow cytometry on cells; Washed TRAP-activated human platelets incubated with or without purified C1q (10 ug/mL), washed, then HAGG (0-10 ug/mL) for 30 min at RT; HAGG detected with rabbit anti-human IgG (Fab2)-FITC; C1q held on the platelet surface

UniProt P02745, sequence (P02745 23-245, chain 1 of 3): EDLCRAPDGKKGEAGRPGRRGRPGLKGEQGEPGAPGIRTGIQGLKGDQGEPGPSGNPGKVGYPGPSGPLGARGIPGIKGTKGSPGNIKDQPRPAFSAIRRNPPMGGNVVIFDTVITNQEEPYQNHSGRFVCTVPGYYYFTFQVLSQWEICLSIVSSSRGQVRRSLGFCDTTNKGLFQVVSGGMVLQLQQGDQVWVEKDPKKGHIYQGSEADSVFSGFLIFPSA
UniProt P02745, sequence (P02746 28-253, chain 2 of 3, further chain): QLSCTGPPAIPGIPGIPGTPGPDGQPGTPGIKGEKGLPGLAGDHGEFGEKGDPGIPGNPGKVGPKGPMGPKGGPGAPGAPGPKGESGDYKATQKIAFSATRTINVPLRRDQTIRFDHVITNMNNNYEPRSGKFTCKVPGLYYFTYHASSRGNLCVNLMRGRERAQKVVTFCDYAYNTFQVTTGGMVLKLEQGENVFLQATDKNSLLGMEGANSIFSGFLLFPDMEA
UniProt P02745, sequence (P02747 29-245, chain 3 of 3, further chain): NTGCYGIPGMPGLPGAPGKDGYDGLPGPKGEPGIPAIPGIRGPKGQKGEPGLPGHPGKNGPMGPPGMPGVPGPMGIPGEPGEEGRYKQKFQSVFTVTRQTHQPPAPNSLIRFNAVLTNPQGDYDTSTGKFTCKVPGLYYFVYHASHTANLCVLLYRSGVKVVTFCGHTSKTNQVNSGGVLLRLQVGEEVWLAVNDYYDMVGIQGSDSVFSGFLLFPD

## heat-aggregated gamma globulin (natural protein)
  fold increase of HAGG binding to activated platelets with C1q against without C1q: 2 fold
